Reference: the supplement of paper PMC12042874
± gives the uncertainty stated by the source.

Test: amyloid nucleation score (Sup35N fusion, yeast selection) (log enrichment); library NNK1; higher = more nucleation; inactive = no reads after selection
How it was run: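 Random libraries were run with three technical output replicates. In each, psi-negative yeast expressing Sup35N fused to peptides of 20 random codons were induced 24 hours with 100 μM copper sulfate and grown 7 days at 30°C on medium lacking adenine and uracil, and input and output plasmid inserts were Illumina-sequenced. The nucleation score is the DiMSum log enrichment of output over input reads, centred on the mode score of non-aggregating sequences, and sequences under 100 input reads were excluded.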

| Substance | amyloid nucleation score |
| --- | --- |
| IRKGSFPD | -0.841 ± 0.82 |
| NQWCAFWYRESSRVYDCDWL | -0.478 ± 0.53 |
| VRNNNFAYVNSVTDGVRYAR | inactive |
| SCMPHYEFMWRGAQAPWGLD | 0.183 ± 0.5 |
| FHSLRLRLMRNYG | -0.31 ± 1.4 |
| NYSDYMWTRLANLA | -0.2 ± 0.72 |
| WDSLVLGKLYKLIFDQASPV | -1.31 ± 1.3 |
| MVFRGFHKSQLGSFELAVGG | 0.428 ± 0.76 |
| VLEDDSDWGSRFVRRGYIKT | 1.15 ± 0.61 |
| SEMLSLKIGQGTVTPFNFWM | -0.09 ± 1.2 |
| CFSRHAICT | -0.863 ± 0.88 |
| SSSFPVMVYTHDAANCHRML | -0.763 ± 0.41 |
| LFTSVYL | -0.173 ± 0.53 |
| FMYKMGSYGMDM | -0.57 ± 0.5 |
| CWTSFYDC | 0.448 ± 0.49 |
| SWISCASGFFYFWAIF | -0.739 ± 0.77 |
| SLSMFLLTILTCYDGFIDIW | -0.372 ± 0.25 |
| DRWRSL | -0.582 ± 0.96 |
| SRILRLLHTVHCDGVGERLR | -0.104 ± 1.1 |
| LKWGMVLGAYIHEFGCNM | 0.804 ± 0.61 |
| FVSIRCVKYASYISHSHGLV | inactive |
| FNDEHKSSIG | -0.549 ± 0.58 |
| DGLLSIEYMNVYSSS | 0.326 ± 0.77 |
| FRTSVDNLIGSENRISLRTS | 0.541 ± 0.68 |
| VRRQRKVVLPTLMGNASGRP | -0.183 ± 0.43 |

| Substance | amyloid nucleation score |
| --- | --- |
| HCVRI | 1.4 ± 0.6 |
| GYRTLLS | 0.372 ± 1.4 |
| RLRLWFVASRMVDKGSGLNV | 0.67 ± 0.49 |
| TFRCKSCDLLYHRLENWSDW | 2.66 ± 0.12 |
| EVSHT | 0.428 ± 0.25 |
| CSCYQALKLA | -0.49 ± 0.88 |
| SSMLSSNRRSALWKQDVSKG | 0.734 ± 1.1 |
| VKSQCECHVSSFALFCWARD | 3.85 ± 0.1 |
| MHVQRVFTRCFKFSPQFVRH | -1.11 ± 0.36 |
| ASFASKARHKR | 0.728 ± 0.87 |
| TGFTSLGGYLKVFNIICWIH | 3.39 ± 0.097 |
| RVDRMKNIFVRYRTVRVHGG | 9.304 ± 0.045 |
| TFLSL | 0.068 ± 0.24 |
| RVCVLFSCWRTMYMIWNSRE | 5.71 ± 0.061 |
| SKLIHYTSFLDYASSGEWKW | 2.81 ± 0.17 |
| YPGNSGSIY | -0.266 ± 0.91 |
| IQLILSSAEFFSLAGSREYR | 2.43 ± 0.22 |
| AVMFVTCLIVSASGHLLYTL | 1.39 ± 0.88 |
| IWRFIFGFGVYVCNGMALSQ | 0.291 ± 0.53 |
| LLMYSKWAFTDYGT | -0.147 ± 0.74 |
| NCASLLGRFSDDLIDHLSVL | 2.02 ± 0.62 |
| LYCFIMDFLLGFKHCMCKGV | 1.55 ± 0.44 |
| CLGYGYSSEDTQTSLCSGVE | -0.642 ± 1 |
| EFIKWRAIGENSYGKGDMDR | 0.387 ± 1 |
| RWGAYVYGQSVSINGIRIVL | 6.665 ± 0.045 |

| Substance | amyloid nucleation score |
| --- | --- |
| WENLKVSNYDLYSVLPLYGP | 0.381 ± 0.45 |
| YTQSWQ | -0.309 ± 0.51 |
| IEGDFEFGVNVSRAARDMRV | -0.856 ± 0.94 |
| FWLILFIVFIKYMNILFRTC | 1.08 ± 0.27 |
| STCSGISFVCHSTIIIKVTF | 3.92 ± 0.12 |
| CIMMRHMVSYEADLRTMFLN | 3.58 ± 0.18 |
| RVFKFSPYILKAILEVSNA | 0.458 ± 0.32 |
| IMEMG | 0.11 ± 0.53 |
| RKVGVGKYLSHFECANRIWL | 0.3 ± 0.33 |
| IIITFLCNYFQGWNCLLVHF | 2.35 ± 0.1 |
| PFAGNHTMWKVPTWGKSWKG | -0.398 ± 0.7 |
| VVEKYSCIRESFHEGFG | -1.07 ± 1.7 |
| IYNWH | 0.849 ± 0.66 |
| WCFVTHLLLCFLLDDKNFTW | inactive |
| KSEDTSRFYTLMMSMYTQRF | 1.76 ± 0.14 |
| GNNFFIIVAVLTQKNSAVRV | 1.19 ± 0.22 |
| ADCGRSVLTKVKRCDTFFSG | 0.023 ± 0.27 |
| VSRYLWIIGRGWVN | 0.412 ± 0.39 |
| LQVKNVYGACFVCAMMVAWE | 5.18 ± 0.09 |
| RLSGKFFICVGLKCVIWLRG | -1.09 ± 0.54 |
| LISGKYLYSPTALLDHIL | 0.484 ± 0.68 |
| YRMSRLFTVVGAPVGSSLNF | -1.58 ± 2.4 |
| CEWFPRHKMYLESVFVYKRL | -0.116 ± 0.56 |
| VMDVFV | -0.292 ± 0.62 |
| QMVGESDECRCSLYSGQWKG | -0.186 ± 0.42 |

| Substance | amyloid nucleation score |
| --- | --- |
| AYNLNLYNRCQVLMLISSTR | 4.91 ± 0.048 |
| GLCTTCF | 0.126 ± 0.64 |
| TIIFYVFQCSMLRFIQMV | inactive |
| IDVWCESRVWRTWVYLGVRV | 0.903 ± 0.56 |
| LEWGQPHPCSGFRKCWYSDV | 0.136 ± 0.58 |
| GHTLRDVWASVEVRSNVDLD | 0.54 ± 0.82 |
| VMKLDGDPKQVFPGYSLMEG | -0.092 ± 0.36 |
| SRHSGGAYNIVTMVT | 0.517 ± 0.33 |
| GTIVEWAT | inactive |
| NGVSTVEYVMFKFSIAFAMF | 6.583 ± 0.046 |
| GDSLTLTLFRIIYIGFRTDY | -1.03 ± 0.44 |
| PTCLSWGGVMRRDL | 0.341 ± 0.48 |
| PSFMMFKSYTPQDFGMH | -0.318 ± 0.99 |
| MGSEVSELWGLVEVKVGDKP | 0.617 ± 0.52 |
| SHTWKGTSCAFAMHAQRGSQ | inactive |
| YRPLVTPALSLTLNRFKVDV | 0.187 ± 0.35 |
| NWEKVNLLTLRNTFRCSSRA | 0.751 ± 0.27 |
| LYRFWCYALST | inactive |
| ILTLIMAL | 0.013 ± 0.33 |
| TLAIESGRFWINRLWYVEGE | -1.55 ± 1.3 |
| YYLIFHFDYHLVIYLW | 0.707 ± 0.41 |
| DEFSFDSSLLMLFGAGYGV | 0.932 ± 0.62 |
| DIATCRIWTVCTCQMCFISV | 6.17 ± 0.089 |
| CFVVVCLFMKA | inactive |
| QWCNIVGSMIVDITQELML | 1.75 ± 0.25 |

| Substance | amyloid nucleation score |
| --- | --- |
| PKNGGQTMAYK | -0.665 ± 0.6 |
| DKRKVRFAVMFNWRRELRY | 0.708 ± 0.7 |
| ALWNLCCHLGDGTAADSTVY | -0.46 ± 1.9 |
| NQYLDVGVRKSNAECKVPHE | inactive |
| MDRFRHNLILICLFLPLILV | -0.364 ± 0.75 |
| QLSYLTFFCFVP | 7.183 ± 0.052 |
| FNRNNMKYQYFLKRIYMNW | -0.338 ± 1.4 |
| SIFLSNILNDTWFLSALSCM | -1.41 ± 0.53 |
| VGLVLKIHVYNYFMETAQQS | 6.555 ± 0.053 |
| FNCRVNFFDSVGY | 3.28 ± 0.16 |
| RYSSPSRGTAMFSLLYLYVY | 0.694 ± 0.97 |
| SFRIVLLPPF | 2.64 ± 0.26 |
| FSALYPGREISA | 1.51 ± 0.84 |
| SGWRSHKLLVSSSCMNARSY | -0.837 ± 0.48 |
| LQFGWFMIYLIKFSPNLRGN | -1.18 ± 1.7 |
| PMYLSSVVCFSKRHMPANRG | -0.138 ± 0.52 |
| NTREVSVRETDCCKLTCMIA | 7.743 ± 0.043 |
| NRRMCFRCIFGFHVCKLNGW | -0.027 ± 0.5 |
| LVGRRGYFSLVWVPGMSFMR | 0.289 ± 0.45 |
| TAWGHV | 0.411 ± 0.73 |
| FLSEMWTKVICWVCCCPVYA | 4.64 ± 0.062 |
| WLEGLKYKLAVDGRFNQSWG | -0.086 ± 0.81 |
| GEDGG | 0.148 ± 0.52 |
| KGVCMTRHD | -0.136 ± 1.6 |
| AVSDVTVIRRCMFIG | 0.448 ± 0.47 |

| Substance | amyloid nucleation score |
| --- | --- |
| DAVSYNSPGGELYDLFNLTA | -0.994 ± 0.97 |
| SVNAYTSRTGRWMVMNSLVS | -0.186 ± 1.9 |
| GVQAVNVEVVNEVCLVKEAT | -0.153 ± 0.46 |
| LWFLNRRLVKQSYG | 0.606 ± 0.38 |
| EQASVIKDVYFPHILRLRMA | -0.432 ± 0.4 |
| TLILVTLMASIRNDTRTSWS | 0.979 ± 0.54 |
| TKTLL | 0.346 ± 0.34 |
| EHNNFFICVCWSAGTSVRMI | 7.992 ± 0.063 |
| SARSWDLQMCFSCLYR | 7.28 ± 0.08 |
| YLGSWIKHRHAQWIARVRNR | 0.508 ± 0.29 |
| QFAHKVYPMSSCLVNVA | -0.678 ± 0.57 |
| TAIRWHFGNFVIDNIRNRGI | 1.25 ± 0.19 |
| RQTGVYCKFNRSRDSILLSH | -0.782 ± 0.86 |
| VLGLGRENSLRVNFYRLCKS | inactive |
| STSDMLVDSRQIVGEYTSDL | -1.3 ± 1.7 |
| RVLANCLCFKYNETRRGCTL | 0.218 ± 0.95 |
| CRYYRCSQKLDKLVTFTKKS | 0.722 ± 0.49 |
| DLYKSVPKHNQSNMSDSTES | -0.631 ± 0.6 |
| IRVLVSCVGYPFTCILKVWT | 1.18 ± 0.97 |
| LVVLL | -0.108 ± 0.71 |
| RPLVGTGIYSVVRSLFRLCV | -1.16 ± 0.59 |
| LNLHS | -0.384 ± 1.2 |
| MIHVFLGETYLVIFAVNFST | inactive |
| GGTCVRQFMVLDTHSHADEC | 0.66 ± 0.56 |
| HLGNSSNQIILHQCI | 4.67 ± 0.059 |

| Substance | amyloid nucleation score |
| --- | --- |
| WISETMFSVSAMSPVTSDAF | -0.713 ± 0.4 |
| FRMGFISYQTQTLTSRVFSF | 2.73 ± 0.19 |
| VTLSTAIVTNEFMSDISTGY | -0.712 ± 0.52 |
| FGIIGEERNLRAAPMAGGRP | -0.455 ± 1.2 |
| WHLSMRLDLPT | 0.363 ± 0.65 |
| SFSVSLTTYVYYFICHYAGI | 1.96 ± 0.13 |
| TVKDNHVLEEFVTFYVVYKS | -0.013 ± 0.27 |
| RFEMNCWSC | -0.802 ± 0.39 |
| PTLMLAGG | -0.33 ± 0.46 |
| SAKNTGYMWMLIWLG | 0.204 ± 0.79 |
| RFNSYEVVIRVWRDSMISEG | 1.09 ± 0.78 |
| TRNVQHRIRSKSTISDKQIF | inactive |
| VQFLLYSGFVQTILMPKASR | 3.02 ± 0.15 |
| PVGGHMVRLSSMSNSLAFKV | -0.563 ± 0.68 |
| LYIQSSNYRDMVYPYSVVPL | 1.95 ± 0.28 |
| ATGSMGQSSSTGDASKLASF | 1.3 ± 0.32 |
| PMTVSNEFAPSILLSRALFW | 3.99 ± 0.14 |
| RSCMRPFIGIMSSSPQIDKA | -0.53 ± 0.77 |
| TYWEMVHWGQEASMGSIRRR | 1.97 ± 0.24 |
| LHLAAMM | -0.344 ± 1.1 |
